Source: doi:10.1101/2022.08.19.504472

Key:
[1] = molecular target: FITC-labeled RLAAK peptide; assay: fluorescence polarisation
[2] = molecular target: FITC-labeled RDAAK peptide; assay: fluorescence polarisation

Row | Kd [1] | Kd [2] | Substance
1 | 58.9 µM |  | His-MBP-OsPRT6-UBR 136H mutant (domain or fragment)
2 | 709 µM |  | His-MBP-OsPRT6-UBR 136H+161V double mutant (domain or fragment)
3 | 25.8 µM | 137 µM | His-MBP-OsPRT6-UBR wild type (domain or fragment)
4 | 41.4 µM |  | His-MBP-OsPRT6-UBR 161V mutant (domain or fragment)
